The record followed here is patent publication US20110250207A1 (OREGON HEALTH AND SCIENCE UNIVERSITY, published 2011).

In series [1] the target is fXI with Lys^83 and Gln^84 replaced with alanine, P03951.
For series [2], the target named is T1, murine factor XI (murine, UniProt Q91Y47 19-624).
T1 construct: also called murine fXI (M); recombinant murine fXI
The experiment in a line: immunoblot of recombinant proteins with 14E11 (FIG. 10A).

The target of series [3] is T2, cow fXI (cattle, UniProt Q5NTB3 19-625).
T2 construct: mature; Endogenous protein immunoprecipitated from plasma; also called cattle fXI
Nature of the series: immunoprecipitation from plasma with 14E11 beads, western blot with biotinylated 14E11.
Protocol: Plasma was obtained from human, cattle, horse, pig, rabbit, raccoon, tiger, baboon, cat, chicken, dog African elephant and llama subjects, and serum was obtained from anteater. Plasma from a fXI-deficient human subject was used as a negative control. Plasma or serum (500 μl) was collected into sodium citrate and mixed with 500 μl Tris-HCl. […] The beads were washed once with 1 ml Tris-HCl, then eluted with 50 μl of non-reducing SDS-sample buffer.

B1: activated factor XII (protein)
chain: IPPWEAPKEHKYKAEEHTVVLTVTGEPCHFPFQYHRQLYHKCTHKGRPGPQPWCATTPNFDQDQRWGYCLEPKKVKDHCSKHSPCQKGGTCVNMPSGPHCLCPQHLTGNHCQKEKCFEPQLLRFFHKNEIWYRTEQAAVARCQCKGPDAHCQRLASQACRTNPCLHGGRCLEVEGHRLCHCPVGYTGAFCDVDTKASCYDGRGLSYRGLARTTLSGAPCQPWASEATYRNVTAEQARNWGLGGHAFCRNPDNDIRPWCFVLNRDRLSWEYCDLAQCQTPTQAAPPTPVSPRLHVPLMPAQPAPPKPQPTTRTPPQSQTPGALPAKREQPPSLTRNGPLSCGQRLRKSLSSMTRVVGGLVALRGAHPYIAALYWGHSFCAGSLIAPCWVLTAAHCLQDRPAPEDLTVVLGQERRNHSCEPCQTLAVRSYRLHEAFSPVSYQHDLALLRLQEDADGSCALLSPYVQPVCLPSGAARPSETTLCQVAGWGHQFEGAEEYASFLQEAQVPFLSLERCSAPDVHGSSILPGMLCAGFLEGGTDACQGDSGGPLVCEDQAAERRLTLQGIISWGSGCGDRNKPGVYTDVAYYLAWIREHTVS
For B1, in series [1], the “rate of activation in solution relative to fXI^WT” value was “about 65% of the rate of fXI^WT” and the “specific activity in a contact activation initiated clotting assay relative to fXI^WT” value is reported as 100-150% of the specific activity of fXI^WT.

B2: monoclonal antibody 14E11 (antibody, V domains shown)
VH: QVQLEESGPGLVAPSQSLSITCTVSGFSLTGYGIYWVRQPPGKGLEWLGMIWGDGRTDYNSALKSRLSISKDNSKSQVFLKMNSLQTDDTARYYCARDYYGSKDYWGQGTTLTVSS
VL: DIVMTQSHKFMSTSVGDRVSITCKASQDVSTAVAWYQQKPGQSPKLLIYLTSYRNTGVPDRFTGSGSGTDFTFTISSVQAEDLAVYYCQQHYKTPYSFGGGTKLERLR
notes: also called anti-murine fXI IgG 14E11; anti-fXI IgG 14E11
As for B2, the binding result in series [2] and in series [3] was “binds” each time.
